Test results as given in patent US7521047.

How the values were obtained:
[1] = target: HLA-DR on RPMI-8226 cells (human); assay: flow cytometry, RPMI-8226 cells stained with FITC-labelled L243 (HLA-DR expression)
[2] = target: HLA-DR on HDLM-2 cells (human); assay: cell-based or functional assay
[3] = target: HLA-DR on BJAB cells (human); assay: cell-based or functional assay
[4] = target: HLA-DR on MHH-CALL-4 cells (human); assay: cell-based or functional assay
[5] = target: HLA-DR on RPMI-8226 cells (human); assay: cell-based or functional assay
[6] = target: HLA-DR on RAJI cells (human); assay: cell-based or functional assay
[7] = target: HLA-DR on KARPAS-422 cells (human); assay: cell-based or functional assay
[8] = target: HLA-DR on L1236 cells (human); assay: cell-based or functional assay
[9] = target: HLA-DR on KARPAS-299 cells (human); assay: cell-based or functional assay
[10] = target: HLA-DR on DOHH-2 cells (human); assay: cell-based or functional assay
[11] = target: HLA-DR on ARH-77 cells (human); assay: cell-based or functional assay
[12] = target: HLA-DR on SR-786 cells (human); assay: cell-based or functional assay
[13] = target: HLA-DR on HC-1 cells (human); assay: cell-based or functional assay
[14] = target: HLA-DR on KM-H2 cells (human); assay: cell-based or functional assay
[15] = target: HLA-DR on EOL-1 cells (human); assay: cell-based or functional assay
[16] = target: HLA-DR on HD-MY-Z cells (human); assay: cell-based or functional assay
[17] = target: HLA-DR on LP-1 cells (human); assay: cell-based or functional assay
[18] = target: HLA-DR on LG-2 cells (human); assay: cell-based or functional assay
[19] = target: HLA-DR on GRANTA-519 cells (human); assay: cell-based or functional assay
[20] = target: HLA-DR on MHH-CALL-2 cells (human); assay: cell-based or functional assay
[21] = target: HLA-DR on NALM-1 cells (human); assay: cell-based or functional assay
[22] = target: HLA-DR on L-363 cells (human); assay: cell-based or functional assay
[23] = target: HLA-DR on MHH-PREB-1 cells (human); assay: cell-based or functional assay
[24] = target: HLA-DR on BONNA-12 cells (human); assay: cell-based or functional assay
[25] = target: HLA-DR on MN-60 cells (human); assay: cell-based or functional assay
[26] = target: HLA-DR on L-428 cells (human); assay: cell-based or functional assay
[27] = target: HLA-DR on L1236 cells (human); assay: flow cytometry, L1236 cells stained with FITC-labelled L243 (HLA-DR expression)
[28] = target: HLA-DR on DOHH-2 cells (human); assay: flow cytometry, DOHH-2 cells stained with FITC-labelled L243 (HLA-DR expression)
[29] = target: HLA-DR on HD-MY-Z cells (human); assay: flow cytometry, HD-MY-Z cells stained with FITC-labelled L243 (HLA-DR expression)
[30] = target: HLA-DR on BJAB cells (human); assay: flow cytometry, BJAB cells stained with FITC-labelled L243 (HLA-DR expression)
[31] = target: HLA-DR (allele and form not stated); assay: not stated (Z. A. Nagy, unpublished)
[32] = target: HLA-DR on LG-2 cells (human); assay: flow cytometry, LG-2 cells stained with FITC-labelled L243 (HLA-DR expression)
[33] = target: HLA-DR on SR-786 cells (human); assay: flow cytometry, SR-786 cells stained with FITC-labelled L243 (HLA-DR expression)
[34] = target: HLA-DR on MHH-CALL-4 cells (human); assay: flow cytometry, MHH-CALL-4 cells stained with FITC-labelled L243 (HLA-DR expression)
[35] = target: HLA-DR on KARPAS-422 cells (human); assay: flow cytometry, KARPAS-422 cells stained with FITC-labelled L243 (HLA-DR expression)
[36] = target: HLA-DR on RAJI cells (human); assay: flow cytometry, RAJI cells stained with FITC-labelled L243 (HLA-DR expression)
[37] = target: HLA-DR on LP-1 cells (human); assay: flow cytometry, LP-1 cells stained with FITC-labelled L243 (HLA-DR expression)
[38] = target: HLA-DR on HC-1 cells (human); assay: flow cytometry, HC-1 cells stained with FITC-labelled L243 (HLA-DR expression)
[39] = target: HLA-DR on MHH-PREB-1 cells (human); assay: flow cytometry, MHH-PREB-1 cells stained with FITC-labelled L243 (HLA-DR expression)
[40] = target: HLA-DR on GRANTA-519 cells (human); assay: flow cytometry, GRANTA-519 cells stained with FITC-labelled L243 (HLA-DR expression)
[41] = target: HLA-DR on BONNA-12 cells (human); assay: flow cytometry, BONNA-12 cells stained with FITC-labelled L243 (HLA-DR expression)
[42] = target: HLA-DR on NALM-1 cells (human); assay: flow cytometry, NALM-1 cells stained with FITC-labelled L243 (HLA-DR expression)
[43] = target: HLA-DR on MN-60 cells (human); assay: flow cytometry, MN-60 cells stained with FITC-labelled L243 (HLA-DR expression)
[44] = target: HLA-DR on KARPAS-299 cells (human); assay: flow cytometry, KARPAS-299 cells stained with FITC-labelled L243 (HLA-DR expression)
[45] = target: HLA-DR on ARH-77 cells (human); assay: flow cytometry, ARH-77 cells stained with FITC-labelled L243 (HLA-DR expression)
[46] = target: HLA-DR on L-428 cells (human); assay: flow cytometry, L-428 cells stained with FITC-labelled L243 (HLA-DR expression)
[47] = target: HLA-DR on HDLM-2 cells (human); assay: flow cytometry, HDLM-2 cells stained with FITC-labelled L243 (HLA-DR expression)
[48] = target: HLA-DR on L-363 cells (human); assay: flow cytometry, L-363 cells stained with FITC-labelled L243 (HLA-DR expression)
[49] = target: HLA-DR on KM-H2 cells (human); assay: flow cytometry, KM-H2 cells stained with FITC-labelled L243 (HLA-DR expression)
[50] = target: HLA-DR on EOL-1 cells (human); assay: flow cytometry, EOL-1 cells stained with FITC-labelled L243 (HLA-DR expression)
[51] = target: chimeric 0401-IE class II molecule on cells of transgenic mice (human/murine chimera); assay: cell-based or functional assay
[52] = target: HLA-DR on chronic lymphoid leukemia (CLL) cells of patients (human); assay: cell-based or functional assay

Chain of L243 (antibody) (VH): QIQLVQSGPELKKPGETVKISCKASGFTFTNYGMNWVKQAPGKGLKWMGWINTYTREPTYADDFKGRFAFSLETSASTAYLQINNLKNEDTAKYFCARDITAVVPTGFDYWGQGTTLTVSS
Chain of L243 (antibody) (VL): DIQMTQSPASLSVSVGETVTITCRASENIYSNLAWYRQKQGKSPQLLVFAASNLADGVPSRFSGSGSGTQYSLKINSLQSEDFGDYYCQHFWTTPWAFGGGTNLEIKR
Chain of MS-GPC-8 IgG4 (antibody) (VH): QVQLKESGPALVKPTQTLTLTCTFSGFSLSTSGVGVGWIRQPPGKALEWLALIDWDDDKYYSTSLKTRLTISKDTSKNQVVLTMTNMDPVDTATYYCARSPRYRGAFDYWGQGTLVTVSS
Chain of MS-GPC-8 IgG4 (antibody) (VL): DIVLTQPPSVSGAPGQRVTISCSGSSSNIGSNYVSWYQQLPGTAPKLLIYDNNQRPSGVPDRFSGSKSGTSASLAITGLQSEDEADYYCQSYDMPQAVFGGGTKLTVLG

L243 (antibody)
MFL (mean fluorescence intensity) [1]: 19 MFL
% Killing by mAb, 200 nM, 4 h [2]: 77%
% Killing by mAb, 200 nM, 4 h [3]: 53%
% Killing by mAb, 200 nM, 4 h [4]: 35%
% Killing by mAb, 200 nM, 4 h [5]: 6%
% Killing by mAb, 200 nM, 4 h [6]: 69%
% Killing by mAb, 200 nM, 4 h [7]: 25%
% Killing by mAb, 200 nM, 4 h [8]: 52%
% Killing by mAb, 200 nM, 4 h [9]: 78%
% Killing by mAb, 200 nM, 4 h [10]: 29%
% Killing by mAb, 200 nM, 4 h [11]: 88%
% Killing by mAb, 200 nM, 4 h [12]: 3%
% Killing by mAb, 200 nM, 4 h [13]: 88%
% Killing by mAb, 200 nM, 4 h [14]: 81%
% Killing by mAb, 200 nM, 4 h [15]: 22%
% Killing by mAb, 200 nM, 4 h [16]: 35%
% Killing by mAb, 200 nM, 4 h [17]: 12%
% Killing by mAb, 200 nM, 4 h [18]: 79%
% Killing by mAb, 200 nM, 4 h [19]: 83%
% Killing by mAb, 200 nM, 4 h [20]: 5%
% Killing by mAb, 200 nM, 4 h [21]: 44%
% Killing by mAb, 200 nM, 4 h [22]: 6%
% Killing by mAb, 200 nM, 4 h [23]: 3%
% Killing by mAb, 200 nM, 4 h [24]: 92%
% Killing by mAb, 200 nM, 4 h [25]: 46%
% Killing by mAb, 200 nM, 4 h [26]: 82%
MFL (mean fluorescence intensity) [27]: 41 MFL
MFL (mean fluorescence intensity) [28]: 444 MFL
MFL (mean fluorescence intensity) [29]: 79 MFL
MFL (mean fluorescence intensity) [30]: 338 MFL
Kd [31]: 10 nM
MFL (mean fluorescence intensity) [32]: 458 MFL
MFL (mean fluorescence intensity) [33]: 142 MFL
MFL (mean fluorescence intensity) [34]: 348 MFL
MFL (mean fluorescence intensity) [35]: 211 MFL
MFL (mean fluorescence intensity) [36]: 617 MFL
MFL (mean fluorescence intensity) [37]: 315 MFL
MFL (mean fluorescence intensity) [38]: 372 MFL
MFL (mean fluorescence intensity) [39]: 175 MFL
MFL (mean fluorescence intensity) [40]: 1460 MFL
MFL (mean fluorescence intensity) [41]: 2430 MFL
MFL (mean fluorescence intensity) [42]: 1080 MFL
MFL (mean fluorescence intensity) [43]: 1120 MFL
MFL (mean fluorescence intensity) [44]: 798 MFL
MFL (mean fluorescence intensity) [45]: 301 MFL
MFL (mean fluorescence intensity) [46]: 244 MFL
MFL (mean fluorescence intensity) [47]: 326 MFL
MFL (mean fluorescence intensity) [48]: 49 MFL
MFL (mean fluorescence intensity) [49]: 619 MFL
MFL (mean fluorescence intensity) [50]: 536 MFL

MS-GPC-8 IgG4 (antibody)
% Killing by mAb, 50 nM, 4 h [3]: 49%
% Killing by mAb, 50 nM, 4 h [4]: 43%
% Killing by mAb, 50 nM, 4 h [5]: 14%
% Killing by mAb, 50 nM, 4 h [7]: 51%
% Killing by mAb, 50 nM, 4 h [8]: 44%
% Killing by mAb, 50 nM, 4 h [10]: 58%
% Killing by mAb, 50 nM, 4 h [12]: 1%
% Killing by mAb, 50 nM, 4 h [14]: 75%
% Killing by mAb, 50 nM, 4 h [15]: 36%
% Killing by mAb, 50 nM, 4 h [16]: 49%
% Killing by mAb, 50 nM, 4 h [17]: 61%
% Killing by mAb, 50 nM, 4 h [19]: 76%
% Killing by mAb, 50 nM, 4 h [22]: 26%
IC50 of inhibition of IL-2 secretion from T-Hyb 1 cells [51]: 11 nM
Maximum inhibition(%) of IL-2 secretion [51]: 100%
% Killing by mAb, 50 nM, 4 h [23]: 2%
viable CLL cells after 24 hours, 100 nM IgG (told for all three human IgGs) [52]: 33%
viable activated CLL cells after 4 hours, 100 nM IgG (average for all patient samples and antibodies) [52]: 24%
% Killing by mAb, 50 nM, 4 h [25]: 71%
